Source: publication PMC10999750

Columns and labels:
Experiment in all cases: fluorescence polarisation; FITC-tagged peptide ('2 nm' [sic]) with importin two-fold serially diluted from 4.5 µM across 23 wells, 200 µl, GST Buffer A (50 mM Tris, 125 mM NaCl); three independent experiments
[1] = target: Synthetic FITC labelled AAV 09YN Cap-BR peptide (residues 117-167)
[2] = target: AAV 09YN Cap-BR-mMAJOR (FITC labelled peptide, residues 117-167, major site mutant)
[3] = target: AAV 09YN Cap-BR-mMINOR (FITC labelled peptide, residues 117-167, minor site mutant)
[4] = target: AAV 09YN Cap-BR-mMINOR+mMAJOR (FITC labelled peptide, residues 117-167, minor and major site mutant)

| Substance | Kd [1] | Kd [2] | Kd [3] | Kd [4] |
| --- | --- | --- | --- | --- |
| Human importin α1 lacking the IBB domain (hImpα1DIBB) (domain or fragment) | 483 nM | – | – | – |
| Human importin α3 lacking the IBB domain (hImpα3DIBB) (domain or fragment) | 1 nM | 1.2 nM | 1.6 nM | 1.4 nM |
| Human importin α5 lacking the IBB domain (hImp5DIBB) (domain or fragment) | 862 nM | – | – | – |
| Human importin α7 lacking the IBB domain (hImpα7DIBB) (domain or fragment) | 11 nM | – | – | – |
| Human importin β (hImpβ) (from UniProt Q14974 1-876) (natural protein) | 1140 nM | – | – | – |
